Laboratory results published in the supplement of paper PMC11865577.

System: TO-3-N3-2 (biotin conjugate)
Assay: pull-down binding Z-score (relative to library population); higher = stronger binding
Details: RNA library: Library-2
Summary of the method: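 To score binding, a beads-only signal was subtracted, barcoded replicate probes were averaged with the highest and lowest dropped, and the value was converted to a Z-score using the library mean and standard deviation. The input was 1 μg of Cy5- or Cy3-end-labelled RNA library, heat-folded in phosphate/NaCl/KCl buffer and mixed for 60 min at 25 °C with streptavidin beads carrying 100 pmol of biotin-conjugated small molecule. Bound RNA was eluted in hot SDS and hybridised to a DNA barcode microarray at 55.5 °C for 20 h.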

First: GUGGUGAGACACUUGGUGUCCUUGUCCCUCAUGUGGGCGAAAUACCAGUGGCUUACCGC
Second: GUGGUUAUACCUACUAAAAAGGCUGGUGGCACUACUGAAAUGCUAGCGAAAGCUUUGAGAAAAGUGCCAACAGACAAUUAUAUAACCAC
The “pull-down binding Z-score” value of the first is lower: -0.0757 for the first, 0.156 for the second.

Going from GUGGUUGACCUACACAGGUGCCAU to GUGUAAAAGUGCCUUUUACAU, the “pull-down binding Z-score” value falls from -0.562 to -0.646.

Going from “GUGUACCUUCCUUACCCAGAUCCAUCAAGAAUCCUAGGGGCCGGCUGUUUUGUAGAUGAUAUCGUAAAAACAGAUGGUACAC [SHAPE_invivo_SARS-CoV-2_Multi_39_ComplexLevel_1]” to “GUGUAUGCUGCUGACCCUGCUAUGCACGCUGCUUCUGGUAAUCUAUUACUAGAUAAACGCACUACGUGCUUUUCAGUAGCUGCAC”, the “pull-down binding Z-score” value rises from -0.087 to 0.434.

Going from GUGUUAUAACAC to “GUGUUUAUGAUUACUUAGUUUCUACACAGGAGUUUAGAUAUAUGAAUUCACAGGGACUACUCCCACCCAAGAAUAGCAUAGAUGC”, the “pull-down binding Z-score” value rises from -0.531 to 0.472.

Compared with “GUUAAAAAUCUGAAUUCUUCUAGAGUUCCUGAUCUUCUGGUCUAAAC”, “GUUAAAAUAUGAC [SHAPE_invivo_SARS-CoV-2_Motif_271]” is lower in “pull-down binding Z-score” value: 0.157 for the first, -0.534 for the second.

Compared with “GUUAAAAUGUUUGAUGCUUACGUUAAUACGUUUUCAUCAACUUUUAAC”, “GUUAACUGGUUAUAAGAAACCUGCUUCAAGAGAGCUUAAAGUUAC” is higher in “pull-down binding Z-score” value: -0.247 for the first, 0.092 for the second.

Going from GUUAAUGCCUAUAUUAACCUUGACCAGGGCUUUAAC to GUUACGACUAUUGUAUACCUUACAAUAGUGUAAC, the “pull-down binding Z-score” value rises from -0.198 to 0.229.

Going from “GUUAGUACAACUACUAAC [SHAPE_invivo_SARS-CoV-2_Motif_138]” to “GUUAUAAAUGGAGACAGGUGGUUUCUCAAUCGAUUUACCACAACUCUUAAUGAC”, the “pull-down binding Z-score” value rises from -0.398 to 0.00889.

Going from “GUUAUGUUGAUACACCUAAU [DMSMaPseq_invitro_SARS-CoV-2_Motif_328]” to “GUUCAGAGUUUAUUCUAGUGCGAAUAAUUGCACUUUUGAAUAUGUCUCUCAGC”, the “pull-down binding Z-score” value rises from -0.132 to 0.063.

Going from “GUUCGGAUGCUCGAACUGCACCUCAUGGUCAUGUUAUGGUUGAGCUGGUAGCAGAACUCGAAGGCAUUCAGUAC [DMSMaPseq_invitro_SARS-CoV-2_Motif_11]” to GUUCGUGUUGUUUUAGAUUUCAUCUAAACGAAC, the “pull-down binding Z-score” value falls from -0.307 to -0.562.

First: GUUCUAAGUAUUGCUCCAAUAAUGUUCUCAAACAAAAUGGCGAGACUGGGAAAAGGGUAUAUGUUUGAGAGCAAGAGUAUGAAACUUAGAAC [IAV_invivo_PB1_2_Motif_18+IAV_invivo_PB1_2_Motif_18]
Second: GUUCUCAGUACAGAGAAAUCUCCCUUUUGACAGAACAACCAUUAUGGCAGCAUUCAAUGGGAAUACAGAGGGGAGAACAUCUGACAUGAGGAC [IAV_invivo_NP_5_Motif_22+IAV_invivo_NP_5_Motif_22]
The “pull-down binding Z-score” value of the first is higher: 0.578 for the first, -0.129 for the second.

Compared with GUUCUCUAAACGAAC, GUUCUCUAUGAGAAC is higher in “pull-down binding Z-score” value: -0.742 for the first, -0.504 for the second.

Going from GUUCUUCUUCGUAAGAAC to “GUUCUUGAGUGUAAUGUGAAAACUACCGAAGUUGUAGGAGACAUUAUACUUAAACCAGC”, the “pull-down binding Z-score” value rises from -0.206 to 0.0674.

Going from “GUUCUUGUAUGUGAGAAC [IAV_invivo_PA_3_Motif_23+IAV_invivo_PA_3_Motif_23]” to “GUUCUUUGAGAAC [IAV_invivo_PA_3_Motif_25+IAV_invivo_PA_3_Motif_25]”, the “pull-down binding Z-score” value rises from -0.614 to -0.317.

Compared with GUUGAAGAAGUUACAAC, “GUUGAAGUUGUUGAUAAGUACUUUGAUUGUUACGAUGGUGGCUGUAUUAAUGCUAACCAAGUCAUCGUCAACAACCUAGACAAAUCAGCUGGUUUUCCAUUUAAU” is lower in “pull-down binding Z-score” value: 0.148 for the first, -0.0144 for the second.

Going from “GUUGACAGGACACGAGUAACUCGUCUAUCUUCUGCAGGCUGCUUACGGUUUCGUCCGUGUUGCAGCCGAUCAUCAGC” to “GUUGAUGAGCCUGAAGAACAUGUCCAAAUUCACACAAUCGACGGUUCAUCCGGAGUUGUUAAUCCAGUAAUGGAACCAAUUUAUGAUGAACCGACGACGAC”, the “pull-down binding Z-score” value rises from -0.335 to -0.311.

Going from “GUUGAUUUUUGUGGAAAGGGCUAUCAUCUUAUGUCCUUCCCUCAGUCAGC [SHAPE_invitro_SARS-CoV-2_Motif_447]” to GUUGCGUCACCAAAUGAAUGCAAC, the “pull-down binding Z-score” value falls from -0.325 to -0.49.

Going from “GUUGCUGUACCUACAGGUUAUGUUGAUACACCUAAUAAUACAGAUUUUUCCAGAGUUAGUGCUAAACCACCGCCUGGAGAUCAAU [SHAPE_invitro_SARS-CoV-2_Multi_51_ComplexLevel_1]” to GUUGGAUAAUGAUGCACUCAACAACAUUAUCAAC, the “pull-down binding Z-score” value falls from -0.139 to -0.75.

Going from “GUUGUAGACGGUUGUAAUUCAUCAACUUGUAUGAUGUGUUACAAACGUAAUAGAGC [SHAPE_invivo_SARS-CoV-2_Motif_153]” to “GUUGUAGACGGUUGUAAUUCAUCAACUUGUAUGAUGUGUUACAAACGUAAUAGAGCAAC”, the “pull-down binding Z-score” value falls from -0.153 to -0.529.

Going from “GUUGUCGCUUCCAAGAAAAGGACGAAGAUGACAAU [SHAPE_invitro_SARS-CoV-2_Motif_248]” to “GUUGUCUUGAAAACUGGUGAUUUACAACCAUUAGAACAACCUACUAGUGAAGCUGUUGAAGCUCCAUUGGUUGGUACACCAGUUUGUAUUAAC”, the “pull-down binding Z-score” value falls from 0.224 to -0.367.

First: GUUGUCUUUGAUGAAAUUUCAAUGGCCAC [DMSMaPseq_invitro_SARS-CoV-2_Motif_310]
Second: GUUGUUACUCACAAUUUUGACUUCACUUUUAGUUUUAGUCCAGAGUACUCAAU
The “pull-down binding Z-score” value of the first is higher: -0.29 for the first, -0.324 for the second.

First: GUUUAAGGAAGGUGUAGAGUUUCUUAGAGAC
Second: GUUUACAACAGUAGAC
The “pull-down binding Z-score” value of the first is higher: 0.179 for the first, -0.155 for the second.

Compared with “GUUUAUGAAAAACUCAAACCCGUCCUUGAUUGGCUUGAAGAGAAGUUUAAGGAAGGUGUAGAGUUUCUUAGAGAC”, GUUUCGGAAGAGAC is lower in “pull-down binding Z-score” value: -0.241 for the first, -0.443 for the second.

Going from GUUUCUGCCUUUCCAACAAUUUGGCAGAGAC to “GUUUGUCUUAGUGGUUUAGAUUCUUUAGACACCUAUCCUUCUUUAGAAACUAUACAAAU”, the “pull-down binding Z-score” value rises from -0.306 to 0.0248.

First: GUUUGUGUAUCUACUAGUGGUAGAUGGGUACUUAAC
Second: GUUUUAAUUAUGCUUAUUAUCUUUUGGUUCUCACUUGAACUGCAAGAUCAUAAUGAAAC
The “pull-down binding Z-score” value of the first is lower: -0.279 for the first, -0.144 for the second.

First: GUUUUCUACAAAGAAAAC
Second: GUUUUUCUGUUUGGAACUUUAAUUUUAGCCAUGGCAGAUUCCAACGGUACUAUUACCGUUGAAGAGCUUAAAAAGCUCCUUGAAC
The “pull-down binding Z-score” value of the first is lower: -0.524 for the first, -0.23 for the second.

First: GUUUUUGUACACAAUUAAACCGUGCUUUAACUGGAAUAGCUGUUGAACAAGACAAAAAC [DMSMaPseq_invitro_SARS-CoV-2_Motif_424]
Second: UAAAAUGAAUUAUCAAGUUA [DMSMaPseq_invitro_SARS-CoV-2_Motif_325]
The “pull-down binding Z-score” value of the first is higher: -0.127 for the first, -0.451 for the second.

Compared with “UAAACACGCUUGUUAAACAACUUAGCUCCAAUUUUGGUGCAAUUUCAAGUGUUUUA [SHAPE_invitro_SARS-CoV-2_Motif_443]”, “UAAACCACCCAUUAGUUUUCCAUUGUGUGCUAAUGGACAAGUUUUUGGUUUA [SHAPE_invivo_SARS-CoV-2_Motif_310]” is lower in “pull-down binding Z-score” value: -0.221 for the first, -0.357 for the second.

Compared with UAAAGAACUUUAAGUCAGUUCUUUA, “UAAAGCCACGUAUAAACCAAAUACCUGGUGUAUACGUUGUCUUUG” is higher in “pull-down binding Z-score” value: -0.501 for the first, -0.279 for the second.

First: UAAAGUACUUAAUGAGAAGUGCUCUGCCUAUACAGUUGAACUCGGUACAGAAGUAAAUGAGUUCGCCUGUGUUGUGGCAGAUGCUGUCAUAAAAACUUUG [DMSMaPseq_invitro_SARS-CoV-2_Motif_52]
Second: UAAAUAAGGGACACUUUGAUGGACAACAGGGUGAAGUACCAGUUUCUAUCAUUAAUAACACUGUUUACACAAAAGUUGAUGGUGUUGAUGUAGAAUUGUUUG
The “pull-down binding Z-score” value of the first is higher: 0.122 for the first, 0.0932 for the second.

Going from “UAAAUUUUUGGCUUUGUGUGCUGACUCUAUCAUUAUUGGUGGAGCUAAACUUAAAGCCUUGAAUUUA” to “UAACACCAGGAACAAAUACUUCUAACCAGGUUGCUGUUCUUUAUCAGGGUGUUA [SHAPE_invivo_SARS-CoV-2_Motif_440]”, the “pull-down binding Z-score” value falls from 0.0426 to -0.22.

First: UAACAGUUACACCGGAAGCCAAUAUGGAUCAAGAAUCCUUUGGUGGUGCAUCGUGUUG
Second: UAAGGAAGGAAGUUCUGUUGAAUUAAAACACUUCUUCUUUG [SHAPE_invitro_SARS-CoV-2_Motif_269]
The “pull-down binding Z-score” value of the first is higher: -0.365 for the first, -0.389 for the second.

Going from “UAAGGAGAGUGUUCAGACAUUCUUUAAGCUUG [DMSMaPseq_invitro_SARS-CoV-2_Motif_43]” to UAAUAACGCUACUAAUGUUGUUAUUA, the “pull-down binding Z-score” value falls from -0.244 to -0.411.
